In publication PMC9305336:

Tests used:
[1] = biological target: recombinant His-tagged histone H3/H4 (human) (UniProt P68431); assay: SEC-MALS; Enrich SEC 70 column in high salt HBS buffer (20 mM Hepes pH 7.5, 2 M NaCl, 1 mM TCEP, 5% glycerol); TSPYL5-NLD alone, H3/H4 alone (H3/H4 dimers to tetramer) and the coexpressed, co-purified complex
[2] = system: TSPYL5-NLD (Homo sapiens); assay: EMSA; details: 10 mM Hepes pH 7.5, 200 mM NaCl, 1 mM TCEP, 5% glycerol, 0.5 mM EDTA; 30 min on ice then 20 min at 25 °C; 6% native Tris-glycine PAGE, GelGreen stain

Row | Substance | Kd [2] | also measured
1 | His-SUMO-tagged TSPYL5-NLD (from UniProt Q86VY4 198-388) (domain or fragment) | – | stoichiometry N (TSPYL5 : 2 H3 : 2 H4) [1]: 2
2 | 80 bp DNA | 500 nM | –
3 | 146 bp DNA | 380 nM | –
4 | recombinant His-tagged histone H3/H4 (from UniProt P68431 1-136; P62805 1-103) (complex) | – | stoichiometry N [1]: 4
